From patent US20220002732A1, “INHIBIN AS TARGETABLE REGULATORS OF ANGIOGENESIS” (UNIVERSITY OF SOUTH CAROLINA, priority 2016, published 2022) come the findings set out here.

For assay [1], the system named is TGF-β receptor serine threonine kinases (ALK1-7). Description: Panel of small molecule ALK inhibitors: inhibin-induced signaling and angiogenesis. The following applies: preliminary screen of ALK inhibitors. It is filed as cell-based. The source says: The inhibin-α activation of the SMAD1/5 pathway was also examined to determine which receptor type is required. TGF-β receptor serine threonine kinases (ALK1-7) are used by other TGF-β ligands. Testing was done to determine which Type I receptor is utilized by inhibin by using a panel of small molecule inhibitors as a preliminary screen for different ALKs. […] Similarly, three type II receptors are expressed in cells: TBRII, ACTRII and BMPRII.

For assay [2], the system named is HMvEC-1 cells. Description: Three-dimensional capillary sprouting and tube formation (number of meshes). The assay is classed as cell-based, human. The method, then:
FIG. 25 illustrates three-dimensional capillary sprouting and tube formation of HMvEC-1 cells in the presence of conditioned media (CM) from shControl SKOV3 cancer cells or CM from shINHA SKOV3 cancer cells (top), in the presence of CM from shControl SKOV3 cells in the presence of 10 μg/ml IgG or anti-inhibin-α (middle), and in the presence of CM from shControl treated with (+) or without (−) 300 pM recombinant Inhibin A alone and anti-inhibin-α antibody (10 μg/ml) (bottom). The bar graphs represent the average number of meshes quantified and represent duplicate trials. […] (Bar graphs show mean±SEM, ***P<0.001 and **P<0.01 (n=3), Student's t-test. Scale Bar=500 μm.)
Other TGF-β members have been reported to have effects on angiogenesis. FIG. 26 illustrates side-by-side comparison of angiogenesis results for HMvEC-1 cells treated as indicated with other TGF-β members (activin A, BMP9, TGFβ1) either alone or in the presence of inhibin-α. The robust effect of inhibin on angiogenesis can be seen. The bar graph represents quantitation of number of meshes.
FIG. 27 illustrates the capillary sprouting and tube formation of multiple endothelial cell types (HUVEC, HMvEC, MEEC) upon treatment with 300 pM inhibin-α for 16 hours and the broad effect of inhibin on angiogenesis in different cell types. The graphs represent the number of meshes, branches, and nodes quantified. (Bar graphs show mean±SEM, ***P<0.001 and **P<0.01 (n=3), Student's t-test. Scale Bar=500 μm.)
FIG. 32 illustrates three-dimensional capillary sprouting and tube formation of HMvEC-1 cells in the presence or absence of recombinant inhibin-α (300 pM) either untreated or pretreated with 100 μg/ml TRC105 for 30 minutes prior to inhibin-α treatment (left, scale bar=500 μm). Average number meshes/field was quantified 16 h after treatment and presented in the bar graph (middle). Minimum of 3 fields were counted and data represent duplicate trials. Western blotting for SMAD1/5 phosphorylation is shown (right) in response to 20 pM inhibin-α for up to 60 minutes.
FIG. 34 illustrates capillary sprouting and tube formation (left) in HMvEC-1 cells in response to inhibin-α in the absence and presence of 5 μM of TRC105 added 30 minutes prior to treatment with inhibin-α. The bar graph on the right represents the number of meshes quantified.

Assay [3] deals with SMAD1/5. Description: Western blot and staining for SMAD1/5 activation in endothelial cells (HMvEC-1, MEEC). It is filed as cell-based, human, mouse. The method, then: (§1) Mouse Embryonic Endothelial Cells (MEEC) and Human Microvascular Endothelial Cells (HMvEC-1) were examined to determine the effect of inhibin-α on SMAD1/5 activation and on MAPK pathway activation, and specifically, on ERK1/2 activation. GAPDH or B-actin was used as control. Cells were incubated with 20 pM inhibin-α and examined over a time course of 60 minutes and also examined following 30-minute incubation over a dose course from 0 to 100 pM inhibin-α. Western blot results are shown of the HMvEC-1 (FIG. 17) and MEEC (FIG. 18). FIG. 19 presents the Western blot time course results following incubation of MEEC with inhibin-α for ERK1/2 activation. FIG. 20 presents image results from staining (Psmad1/5, DAP, and merged images) for HMvEC-1 cells (left) and MEEC cells (right) following incubation in inhibin-α or untreated (UT).
To determine if inhibin secreted by ovarian cancer cells activates the SMAD1/5 pathway in endothelial cells, conditioned media were obtained from stable cell lines that were generated from SKOV3 cells and OVCA420 cells with short hairpin RNA either as a control (with no effective sequence) (shControl), or directed at inhibin-α (shINHA), or stable unmodified SKOV3 cells. HMvEC-1 cells were then incubated in one of the conditioned media, as schematically illustrated in FIG. 22.

For assay [4], the system named is ERK1/2. Description: Western blot for MAPK pathway ERK1/2 activation in endothelial cells (MEEC). The following applies: time course. It is filed as cell-based, mouse. The method, then: as §1
For orientation: Immunoblotting shows a protein as a band on a membrane.

For assay [5], the system named is SMAD2/3. Description: Western blot for SMAD2/3 activation in endothelial cells (HMvEC-1, MEEC). The assay is classed as cell-based, human, mouse.

Consider `NC(=O)c1ccc(-c2nc(-c3ccc4c(c3)OCO4)c(-c3ccccn3)[nH]2)cc1` [SB431542], for which the “suppression of inhibin-induced signaling and angiogenesis” value in assay [1] is “not ALK3/6 or ALK5/4/7 (SB431542), suppressed”.

B1: recombinant Inhibin: recombinant Inhibin A, αβA heterodimer, used at 300 pM (protein, UniProt P05111 233-366; P08476 311-426, looked up)
Inhibin alpha chain: STPLMSWPWSPSALRLLQRPPEEPAAHANCHRVALNISFQELGWERWIVYPPSFIFHYCHGGCGLHIPPNLSLPVPGAPPTPAQPYSLLPGAQPCCAALPGTMRPLHVRTTSDGGYSFKYETVPNLLTQHCACI
Inhibin beta A chain: GLECDGKVNICCKKQFFVSFKDIGWNDWIIAPSGYHANYCEGECPSHIAGTSGSSLSFHSTVINHYRMRGHSPFANLKSCCVPTKLRPMSMLYYDDGQNIIKKDIQNMIVEECGCS
For the molecule B1, the “endothelial cell angiogenesis induced by tumor cell-produced inhibin (number of meshes)” value in assay [2] (HMvEC-1, CM from shControl SKOV3, antibody 10 μg/ml, recombinant Inhibin A 300 pM) is given as “can be recapitulated”.

B2: inhibin-α: α-subunit of inhibin, critical for the functionality of dimeric inhibin (both A and B) (protein, UniProt P05111 233-366, looked up)
Inhibin alpha chain: B1 Inhibin alpha chain
With B2, the “angiogenesis (number of meshes), side-by-side with other TGF-β members” value in assay [2] (HMvEC-1, compared with activin A, BMP9, TGFβ1) is given as “robust effect”. For the same molecule, the “capillary sprouting and tube formation in multiple endothelial cell types” value in assay [2] (HUVEC, HMvEC, MEEC, 300 pM, 16 hours) is recorded as “broad effect”. Also, the “SMAD1/5 pathway activation by cancer cell conditioned media” value in assay [3] (HMvEC-1 cells in conditioned media of shControl or shINHA SKOV3/OVCA420 cells) is “activates the SMAD1/5 pathway in endothelial cells in a paracrine manner”. In addition, the SMAD1/5 activation result in assay [3] (endothelial cells, 20 pM over 60 minutes, 0 to 100 pM for 30 minutes) is listed as “robust activator”. For the same molecule, the ERK1/2 activation entry in assay [4] was “robust activator”. Also, the SMAD2/3 activation entry in assay [5] is “not equally an activator”.

B3: TRCN105: humanized antibody to endoglin in clinical trials (antibody, chains of the INN, looked up, V domains shown)
VH: EVKLEESGGGLVQPGGSMKLSCAASGFTFSDAWMDWVRQSPEKGLEWVAEIRSKASNHATYYAESVKGRFTISRDDSKSSVYLQMNSLRAEDTGIYYCTRWRRFFDSWGQGTTLTVSS
VL: QIVLSQSPAILSASPGEKVTMTCRASSSVSYMHWYQQKPGSSPKPWIYATSNLASGVPVRFSGSGSGTSYSLTISRVEAEDAATYYCQQWSSNPLTFGAGTKLELK
As for B3, the “inhibin-α-induced angiogenesis on loss or block of endoglin or ALK1” value in assay [2] (endothelial cells with or without recombinant inhibin-α) was “inhibin does not induce angiogenesis”.
